Assay results taken from US20150368316A1 (ALBERT EINSTEIN COLLEGE OF MEDICINE OF YESHIVA UNIVERSITY, published 2015).

How the values were obtained:
[1] = target: human PD-L2 on mature human monocyte-derived dendritic cells (human) (UniProt Q9BQ51); experiment: flow cytometry, Kd estimated from MFI of Ig fusion protein binding to TNF-α-matured human monocyte-derived dendritic cells; the cells express both PD-L1 and PD-L2, so the value is an apparent avidity not resolved between the two ligands [panel B, table]
[2] = target: human PD-L1 on mature human monocyte-derived dendritic cells (human) (UniProt Q9NZQ7); experiment: as above
Sequence of human PD-L1 on mature human monocyte-derived dendritic cells (human) (Q9NZQ7 19-290): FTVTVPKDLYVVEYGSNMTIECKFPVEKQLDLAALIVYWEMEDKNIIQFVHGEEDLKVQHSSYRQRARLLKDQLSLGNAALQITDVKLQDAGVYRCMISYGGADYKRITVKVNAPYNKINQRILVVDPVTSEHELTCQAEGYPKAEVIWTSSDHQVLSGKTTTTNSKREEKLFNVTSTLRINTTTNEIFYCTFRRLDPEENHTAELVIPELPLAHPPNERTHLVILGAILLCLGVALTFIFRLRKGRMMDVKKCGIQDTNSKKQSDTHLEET

Sequence of human PD-L2 on mature human monocyte-derived dendritic cells (human) (Q9BQ51 20-273): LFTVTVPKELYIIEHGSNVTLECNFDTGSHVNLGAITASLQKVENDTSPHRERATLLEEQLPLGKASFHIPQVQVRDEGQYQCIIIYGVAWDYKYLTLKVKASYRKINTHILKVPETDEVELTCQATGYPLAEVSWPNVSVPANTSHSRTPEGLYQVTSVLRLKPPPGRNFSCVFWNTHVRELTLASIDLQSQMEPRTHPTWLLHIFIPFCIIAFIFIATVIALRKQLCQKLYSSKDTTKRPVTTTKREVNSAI

Kd [1]: 325 nM | Kd [2]: 325 nM
Substance: PD-1 Ig (Fc fusion)
